From paper PMC5393062
pKd: −log10 of the molar value.

Assays:
Test in all cases: fluorescence polarization
[1] = molecular target: pNOB8 ParA(K270E) (Sulfolobus NOB8H2, plasmid pNOB8) (UniProt O93708); conditions: FP: 25 mM Tris-HCl pH 7.5, 100 mM NaCl, 1 nM 5'-fluorescein DNA, with ATP/AMPPNP, ADP or no nucleotide; temperature not stated. Crystals: 20% PEG 4000, 10% …
[2] = molecular target: pNOB8 ParA(R52E-K218E) (Sulfolobus NOB8H2, plasmid pNOB8) (UniProt O93708); conditions: FP: 25 mM Tris-HCl pH 7.5, 100 mM NaCl, 1 nM 5'-fluorescein DNA, with ATP/AMPPNP, ADP or no nucleotide; temperature not stated. Crystals: 20% PEG 4000, 10% …
[3] = molecular target: pNOB8 ParA(K58E) (Sulfolobus NOB8H2, plasmid pNOB8) (UniProt O93708); conditions: FP: 25 mM Tris-HCl pH 7.5, 100 mM NaCl, 1 nM 5'-fluorescein DNA, with ATP/AMPPNP, ADP or no nucleotide; temperature not stated. Crystals: 20% PEG 4000, 10% …
[4] = molecular target: pNOB8 ParA(R52E-K221E) (Sulfolobus NOB8H2, plasmid pNOB8) (UniProt O93708); conditions: FP: 25 mM Tris-HCl pH 7.5, 100 mM NaCl, 1 nM 5'-fluorescein DNA, with ATP/AMPPNP, ADP or no nucleotide; temperature not stated. Crystals: 20% PEG 4000, 10% …
[5] = molecular target: pNOB8 ParA (Sulfolobus NOB8H2, plasmid pNOB8) (UniProt O93708); conditions: FP: 25 mM Tris-HCl pH 7.5, 100 mM NaCl, 1 nM 5'-fluorescein DNA, with ATP/AMPPNP, ADP or no nucleotide, temperature not stated. Crystals: 20% PEG 4000, 10% …

Sequence: TGACGCCGGCGTCA (double strand) [14mer nsDNA, FP probe]
- pKd [1]: 6.52
- pKd [2]: 5.50
- pKd [3]: 6.56
- pKd [4]: 5.23
- pKd ([5]; AMPPNP, stoichiometry ~1 ParA dimer to 2 duplexes at 1 uM DNA): 6.94
- pKd [5]: 6.92
